Assay results reported in paper PMC3523363 (Journal of medicinal chemistry, 2012).

Tests used:
Spectroscopic studies = type: physicochemical; settings: in DMF; for фF (fluorescence quantum yield): calculated using ZnPc (Фf = 0.17) as the standard; for Emission: excitation at 670 nm
HEp2 cells = test: Phototoxicity, Cell Titer Blue assay; type: cell-based, human; settings: 24 h
A431 s.c. tumors = test: In vivo near-IR fluorescence imaging of s.c. tumor xenografts; set-up: species or system nude mice; settings: 10 mg/kg iv, up to 96 h
HT-29 cells = test: Phototoxicity, Cell Titer Blue assay; type: cell-based, human; settings: 24 h
HT-29 s.c. tumors = test: In vivo near-IR fluorescence imaging of s.c. tumor xenografts; set-up: species or system nude mice; settings: HT-29 s.c. tumor, 10 mg/kg iv, up to 96 h
Vero cells = test: Phototoxicity, Cell Titer Blue assay; type: cell-based, cercopithecus aethiops; settings: 24 h
A431 cells = test: Phototoxicity, Cell Titer Blue assay; type: cell-based, human; settings: 24 h
[1] = in DMF; cited from earlier work
EGFR = EGFR (Homo sapiens, UniProt P00533); test: Surface plasmon resonance; type: binding; settings: EGFR immobilized on CM5 chip, 25 °C

In the case of `CC(C)C[C@H](NC(=O)CCOCCOCCOCCNC(=O)COCC(=O)Nc1ccc(Oc2ccc3c4nc5nc(nc6[nH]c(nc7nc(nc([nH]4)c3c2)-c2cc(C(C)(C)C)ccc2-7)c2ccc(C(C)(C)C)cc62)-c2ccc(C(C)(C)C)cc2-5)cc1)C(=O)N[C@@H](C)C(=O)N[C@@H](CCCNC(=N)N)C(=O)N[C@@H](CC(C)C)C(=O)N[C@@H](CC(C)C)C(=O)N[C@H](C(N)=O)[C@@H](C)O` [Pc 5b], the ε (Spectroscopic studies) is reported as 5.27 M⁻¹ cm⁻¹, the “фF (fluorescence quantum yield)” value (Spectroscopic studies) is reported as 0.11 and the Emission (Spectroscopic studies) is reported as 682 nm. For the same molecule, the IC50 (HEp2 cells) was greater than 100 µM, the “course of tumor fluorescence signal” value (A431 s.c. tumors) was “continued to increase to 96 h” and the IC50 (HT-29 cells) was greater than 100 µM. The “course of tumor fluorescence signal” value (HT-29 s.c. tumors) was “declined from 24 to 96 h”, the IC50 (Vero cells) was greater than 100 µM and the IC50 (A431 cells) was greater than 100 µM.
In the case of `[Zn+2].c1ccc2c(c1)-c1nc-2nc2[n-]c(nc3nc([n-]c4nc(n1)-c1ccccc1-4)-c1ccccc1-3)c1ccccc21` [ZnPc], the “Фf (fluorescence quantum yield) of the reference” value [1] is given as 0.17.
In the case of GYHWYGYTPQNVI [EGFR-L2], the “relative binding affinity to EGFR (SPR)” value (EGFR) is reported as “higher affinity for EGFR than EGFR-L1”.
For `CC[C@H](C)[C@H](NC(=O)[C@@H](NC(=O)[C@H](CC(N)=O)NC(=O)[C@H](CCC(N)=O)NC(=O)[C@@H]1CCCN1C(=O)[C@@H](NC(=O)[C@H](Cc1ccc(O)cc1)NC(=O)CNC(=O)[C@H](Cc1ccc(O)cc1)NC(=O)[C@H](Cc1c[nH]c2ccccc12)NC(=O)[C@H](Cc1c[nH]cn1)NC(=O)[C@H](Cc1ccc(O)cc1)NC(=O)CNC(=O)COCC(=O)Nc1ccc(Oc2ccc3c4nc5nc(nc6[nH]c(nc7nc(nc([nH]4)c3c2)-c2cc(C(C)(C)C)ccc2-7)c2ccc(C(C)(C)C)cc62)-c2ccc(C(C)(C)C)cc2-5)cc1)[C@@H](C)O)C(C)C)C(N)=O` [Pc 4b], the “Stokes' Shift” value (Spectroscopic studies) was 4 nm, the ε (Spectroscopic studies) was 4.85 M⁻¹ cm⁻¹ and the Absorption (Spectroscopic studies; Q band) was 677 nm. For the same molecule, the “фF (fluorescence quantum yield)” value (Spectroscopic studies) was 0.10 and the Emission (Spectroscopic studies) was 681 nm.
